Reference: publication PMC9126950, “SARS-CoV-2 detection using a nanobody-functionalized voltammetric device” (Communications Medicine, 2022)

B1: VHH-72-C13 (VHH)
VHH: QVQLQESGGGLVCAGGSLRLSCAASGRTFSEYAMGWFRQAPGKEREFVATISWSGGSTYYTDSVKGRFTISRDNAKNTVYLQMNSLKPDDTAVYYCAAAGLGTVVSEWDYDYDYWGQGTQVTVSS
notes: also called VHH-72-13C; VHH-C13
B2: VHH-72 (VHH)
VHH: QVQLQESGGGLVQAGGSLRLSCAASGRTFSEYAMGWFRQAPGKEREFVATISWSGGSTYYTDSVKGRFTISRDNAKNTVYLQMNSLKPDDTAVYYCAAAGLGTVVSEWDYDYDYWGQGTQVTVSS

Key:
[1] = molecular target: T1, SARS-CoV-2 spike receptor binding domain (RBD), recombinant (SARS-CoV-2, UniProt P0DTC2 319-541); assay: SPR; conditions: both partners purified
T1 construct: also called SARS-CoV-2 RBD; Spike RBD

[2] = molecular target: T2, SARS-CoV-2 spike receptor binding domain (RBD), recombinant (SARS-CoV-2, UniProt P0DTC2); assay: electrochemical titration (differential pulse voltammetry); conditions: both partners purified
T2 construct: also called SARS-CoV-2 RBD; Spike RBD

Row | Binder | Kd [1] | Kd [2]
1 | B1 | 12.1 nM | 
2 | B2 |  | 78 nM
